US20230255948A1 (Stanford University, published 2023)

Experiments:
[1] = molecular target: α9β1 integrin on mouse RAW macrophage cells (mouse, UniProt B8JK39 29-1036; P09055 21-798); experiment: cell-based or functional assay
[2] = molecular target: α4β1 integrin on mouse B16 melanoma cells and mouse RAW macrophage cells (mouse, UniProt Q00651 41-1039; P09055 21-798); experiment: cell-based or functional assay
α4β1 integrin on mouse B16 melanoma cells and mouse RAW macrophage cells, sequence (Q00651 41-1039, chain 1 of 2): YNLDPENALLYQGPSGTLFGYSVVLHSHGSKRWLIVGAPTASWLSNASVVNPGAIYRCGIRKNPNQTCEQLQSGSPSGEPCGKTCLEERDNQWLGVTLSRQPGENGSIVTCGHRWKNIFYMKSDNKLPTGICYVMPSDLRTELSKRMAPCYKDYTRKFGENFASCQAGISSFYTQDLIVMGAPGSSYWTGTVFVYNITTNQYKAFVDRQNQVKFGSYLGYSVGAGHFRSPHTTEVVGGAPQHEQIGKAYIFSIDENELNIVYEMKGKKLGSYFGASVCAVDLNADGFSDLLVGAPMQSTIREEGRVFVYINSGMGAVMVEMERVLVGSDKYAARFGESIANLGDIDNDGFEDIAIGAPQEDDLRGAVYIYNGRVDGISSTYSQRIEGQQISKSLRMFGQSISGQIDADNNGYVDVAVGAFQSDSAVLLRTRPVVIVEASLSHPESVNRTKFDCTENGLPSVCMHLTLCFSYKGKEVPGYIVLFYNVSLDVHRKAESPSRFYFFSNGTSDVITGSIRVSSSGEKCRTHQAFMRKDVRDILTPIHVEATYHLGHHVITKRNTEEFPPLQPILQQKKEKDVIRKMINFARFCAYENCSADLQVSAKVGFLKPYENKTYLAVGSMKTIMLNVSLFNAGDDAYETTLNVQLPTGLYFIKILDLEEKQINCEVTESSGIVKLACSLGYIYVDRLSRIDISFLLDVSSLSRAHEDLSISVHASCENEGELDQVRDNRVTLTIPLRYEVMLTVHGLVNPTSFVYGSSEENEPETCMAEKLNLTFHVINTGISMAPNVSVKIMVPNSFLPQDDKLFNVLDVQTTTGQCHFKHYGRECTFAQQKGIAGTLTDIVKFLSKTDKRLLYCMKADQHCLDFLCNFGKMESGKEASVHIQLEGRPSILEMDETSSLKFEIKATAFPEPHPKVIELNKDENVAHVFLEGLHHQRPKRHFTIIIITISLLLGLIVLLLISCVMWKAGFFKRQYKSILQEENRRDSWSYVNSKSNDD
α4β1 integrin on mouse B16 melanoma cells and mouse RAW macrophage cells, sequence (P09055 21-798, chain 2 of 2): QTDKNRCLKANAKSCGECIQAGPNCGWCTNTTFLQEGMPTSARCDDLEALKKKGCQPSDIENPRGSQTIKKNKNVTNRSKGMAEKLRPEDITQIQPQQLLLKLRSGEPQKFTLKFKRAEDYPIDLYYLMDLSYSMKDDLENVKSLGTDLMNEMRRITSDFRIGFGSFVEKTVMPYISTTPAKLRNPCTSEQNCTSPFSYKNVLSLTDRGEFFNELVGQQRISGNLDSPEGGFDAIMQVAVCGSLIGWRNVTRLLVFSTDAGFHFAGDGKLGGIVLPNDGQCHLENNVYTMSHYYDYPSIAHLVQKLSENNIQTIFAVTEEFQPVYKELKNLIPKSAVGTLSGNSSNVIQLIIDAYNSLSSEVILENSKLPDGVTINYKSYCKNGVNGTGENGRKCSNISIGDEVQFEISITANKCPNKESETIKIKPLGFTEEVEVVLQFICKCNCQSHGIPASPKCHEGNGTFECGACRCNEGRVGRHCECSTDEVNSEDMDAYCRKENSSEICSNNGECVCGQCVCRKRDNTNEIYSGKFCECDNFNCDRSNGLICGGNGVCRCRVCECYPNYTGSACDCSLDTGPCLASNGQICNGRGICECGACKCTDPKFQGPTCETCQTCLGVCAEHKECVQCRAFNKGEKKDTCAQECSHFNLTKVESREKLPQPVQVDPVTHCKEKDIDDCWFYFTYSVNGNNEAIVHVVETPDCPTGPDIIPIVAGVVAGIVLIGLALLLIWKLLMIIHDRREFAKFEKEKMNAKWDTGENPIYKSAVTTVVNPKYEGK

α9β1 integrin on mouse RAW macrophage cells, sequence (B8JK39 29-1036, chain 1 of 2): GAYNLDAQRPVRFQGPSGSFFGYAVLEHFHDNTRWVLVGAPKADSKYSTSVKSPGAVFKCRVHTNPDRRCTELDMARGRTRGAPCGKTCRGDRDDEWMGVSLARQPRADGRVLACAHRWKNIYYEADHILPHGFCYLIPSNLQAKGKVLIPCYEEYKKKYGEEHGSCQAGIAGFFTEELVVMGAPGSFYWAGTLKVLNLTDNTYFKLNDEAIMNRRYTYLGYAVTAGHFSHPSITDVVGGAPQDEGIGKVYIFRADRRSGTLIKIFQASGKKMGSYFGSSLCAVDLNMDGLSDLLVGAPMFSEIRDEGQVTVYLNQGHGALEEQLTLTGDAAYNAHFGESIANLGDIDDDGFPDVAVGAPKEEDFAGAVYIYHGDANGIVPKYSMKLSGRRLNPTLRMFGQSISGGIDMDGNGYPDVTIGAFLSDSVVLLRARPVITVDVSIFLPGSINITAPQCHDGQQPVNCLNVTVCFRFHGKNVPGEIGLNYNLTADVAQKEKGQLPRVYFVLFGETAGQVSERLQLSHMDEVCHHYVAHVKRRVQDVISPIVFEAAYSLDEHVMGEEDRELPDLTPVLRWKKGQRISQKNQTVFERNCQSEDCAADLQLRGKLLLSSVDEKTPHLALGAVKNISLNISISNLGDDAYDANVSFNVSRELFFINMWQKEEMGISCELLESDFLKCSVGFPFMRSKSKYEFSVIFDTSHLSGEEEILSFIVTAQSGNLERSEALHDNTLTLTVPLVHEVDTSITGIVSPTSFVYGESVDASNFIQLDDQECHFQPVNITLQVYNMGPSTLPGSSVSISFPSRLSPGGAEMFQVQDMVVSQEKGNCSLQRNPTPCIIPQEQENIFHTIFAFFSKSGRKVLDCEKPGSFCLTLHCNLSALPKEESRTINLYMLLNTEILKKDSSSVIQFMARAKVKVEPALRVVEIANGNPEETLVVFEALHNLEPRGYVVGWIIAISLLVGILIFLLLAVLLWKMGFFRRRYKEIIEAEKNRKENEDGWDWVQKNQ
α9β1 integrin on mouse RAW macrophage cells, sequence (P09055 21-798, chain 2 of 2): as the sequence (P09055 21-798, chain 2 of 2) above

With RGDSVVYGLR (ligand) [Thrombin-cleaved OPN-Arg (OPN-R)] the “PGE2 secretion in RAW cells” value [1] was about 4.2 fold, the B16 cell adhesion [2] was about 3.5 fold and the “PGE2 secretion in RAW cells” value [2] was about 4.2 fold.
